# T1: FcγRIIa(H) extracellular domain, His-tagged (human, UniProt P12318 34-217)
# T1 construct: extracellular domain; also called 2aH
# T1 sequence: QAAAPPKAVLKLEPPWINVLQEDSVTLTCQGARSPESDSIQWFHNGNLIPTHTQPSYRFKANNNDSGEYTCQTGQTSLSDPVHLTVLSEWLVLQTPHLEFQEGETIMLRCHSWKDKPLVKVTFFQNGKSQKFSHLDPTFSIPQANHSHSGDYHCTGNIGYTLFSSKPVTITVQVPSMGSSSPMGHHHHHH
# T2: FcγRIIa(R) extracellular domain, His-tagged (human, UniProt P12318 34-217)
# T2 construct: extracellular domain; also called 2aR
# T2 sequence: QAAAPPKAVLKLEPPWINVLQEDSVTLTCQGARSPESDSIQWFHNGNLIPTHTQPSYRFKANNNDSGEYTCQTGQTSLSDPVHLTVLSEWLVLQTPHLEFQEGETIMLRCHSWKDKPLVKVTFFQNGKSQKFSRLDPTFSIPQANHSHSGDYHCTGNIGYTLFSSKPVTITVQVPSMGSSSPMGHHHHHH
# T3: FcγRIIb extracellular domain, His-tagged (human, UniProt P31994 43-217)
# T3 construct: extracellular domain; also called 2b
# T3 sequence: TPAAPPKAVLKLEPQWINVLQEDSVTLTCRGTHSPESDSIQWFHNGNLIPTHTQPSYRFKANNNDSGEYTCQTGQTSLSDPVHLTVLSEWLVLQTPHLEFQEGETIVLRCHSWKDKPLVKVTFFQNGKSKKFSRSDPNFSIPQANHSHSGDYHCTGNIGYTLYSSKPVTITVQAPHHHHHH
# Assays:
# Assay in all cases: SPR, vs GpH7-A5/GpH7-B3/GpL16-k0 =100
# [1] = molecular target: T1, FcγRIIa(H) extracellular domain, …
# [2] = molecular target: T2, FcγRIIa(R) extracellular domain, …
# [3] = molecular target: T3, FcγRIIb extracellular domain, His-tagged
# [4] = molecular target: T4, FcγRIa extracellular domain, His-tagged (human, UniProt P12314 16-292)
# T4 construct: extracellular domain; also called 1a
# [5] = molecular target: T5, FcγRIIIa extracellular domain, His-tagged (human, UniProt P08637 17-208)
# T5 construct: extracellular domain; also called 3a
# T5 sequence (P08637 other isoform, or with tags, fused parts or gaps): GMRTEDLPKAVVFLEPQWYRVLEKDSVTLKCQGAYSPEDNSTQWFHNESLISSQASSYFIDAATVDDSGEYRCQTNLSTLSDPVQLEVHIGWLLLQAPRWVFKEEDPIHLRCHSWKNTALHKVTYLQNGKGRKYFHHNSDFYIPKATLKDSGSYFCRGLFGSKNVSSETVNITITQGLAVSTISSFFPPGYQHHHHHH
# T4 sequence (P12314 other isoform, or with tags, fused parts or gaps): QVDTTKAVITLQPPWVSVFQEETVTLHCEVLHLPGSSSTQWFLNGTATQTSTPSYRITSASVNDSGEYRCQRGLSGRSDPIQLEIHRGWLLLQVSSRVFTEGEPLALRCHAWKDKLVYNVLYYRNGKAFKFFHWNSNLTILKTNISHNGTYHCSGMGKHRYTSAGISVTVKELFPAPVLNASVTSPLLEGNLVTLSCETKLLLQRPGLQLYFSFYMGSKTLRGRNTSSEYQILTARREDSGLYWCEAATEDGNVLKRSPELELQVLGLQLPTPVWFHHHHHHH
Binder,He/Con 2aH [1],He/Con 2aR [2],He/Con 2b [3],He/Con 1a [4],He/Con 3a [5]
"GpH7-A5/GpH7-B3 variant L234_02A/GpL16-k0 (antibody, human IgG1, kappa) heavy 1: not shown heavy 2: not shown light: DIVMTQSPLSLPVTPGEPASISCQASESLVHSNRNTYLHWYLQKPGQSPQLLIYKVSNRFSGVPDRFSGSGSGTDFTLKISRVEAEDVGVYYCSQNTHVPPTFGQGTKVEIERTVAAPSVFIFPPSDEQLKSGTASVVCLLNNFYPREAKVQWKVDNALQSGNSQESVTEQDSKDSTYSLSSTLTLSKADYEKHKVYACEVTHQGLSSPVTKSFNRGEC",90.1 % of control,92.5 % of control,74.1 % of control,101 % of control,69.7 % of control
"GpH7-A5/GpH7-B3 variant L234_04F/GpL16-k0 (antibody, human IgG1, kappa) heavy 1: not shown heavy 2: not shown light: DIVMTQSPLSLPVTPGEPASISCQASESLVHSNRNTYLHWYLQKPGQSPQLLIYKVSNRFSGVPDRFSGSGSGTDFTLKISRVEAEDVGVYYCSQNTHVPPTFGQGTKVEIERTVAAPSVFIFPPSDEQLKSGTASVVCLLNNFYPREAKVQWKVDNALQSGNSQESVTEQDSKDSTYSLSSTLTLSKADYEKHKVYACEVTHQGLSSPVTKSFNRGEC",133 % of control,121 % of control,114 % of control,104 % of control,114 % of control
"GpH7-A5/GpH7-B3 variant L234_05P/GpL16-k0 (antibody, human IgG1, kappa) heavy 1: not shown heavy 2: not shown light: DIVMTQSPLSLPVTPGEPASISCQASESLVHSNRNTYLHWYLQKPGQSPQLLIYKVSNRFSGVPDRFSGSGSGTDFTLKISRVEAEDVGVYYCSQNTHVPPTFGQGTKVEIERTVAAPSVFIFPPSDEQLKSGTASVVCLLNNFYPREAKVQWKVDNALQSGNSQESVTEQDSKDSTYSLSSTLTLSKADYEKHKVYACEVTHQGLSSPVTKSFNRGEC",104 % of control,104 % of control,83.2 % of control,103 % of control,85.1 % of control
"GpH7-A5/GpH7-B3 variant L234_09D/GpL16-k0 (antibody, human IgG1, kappa) heavy 1: not shown heavy 2: not shown light: DIVMTQSPLSLPVTPGEPASISCQASESLVHSNRNTYLHWYLQKPGQSPQLLIYKVSNRFSGVPDRFSGSGSGTDFTLKISRVEAEDVGVYYCSQNTHVPPTFGQGTKVEIERTVAAPSVFIFPPSDEQLKSGTASVVCLLNNFYPREAKVQWKVDNALQSGNSQESVTEQDSKDSTYSLSSTLTLSKADYEKHKVYACEVTHQGLSSPVTKSFNRGEC",100 % of control,142 % of control,172 % of control,101 % of control,113 % of control
"GpH7-A5/GpH7-B3 variant L234_03V/GpL16-k0 (antibody, human IgG1, kappa) heavy 1: not shown heavy 2: not shown light: DIVMTQSPLSLPVTPGEPASISCQASESLVHSNRNTYLHWYLQKPGQSPQLLIYKVSNRFSGVPDRFSGSGSGTDFTLKISRVEAEDVGVYYCSQNTHVPPTFGQGTKVEIERTVAAPSVFIFPPSDEQLKSGTASVVCLLNNFYPREAKVQWKVDNALQSGNSQESVTEQDSKDSTYSLSSTLTLSKADYEKHKVYACEVTHQGLSSPVTKSFNRGEC",94.4 % of control,99 % of control,83.4 % of control,108 % of control,88.3 % of control
"GpH7-A5/GpH7-B3 variant L234_06M/GpL16-k0 (antibody, human IgG1, kappa) heavy 1: not shown heavy 2: not shown light: DIVMTQSPLSLPVTPGEPASISCQASESLVHSNRNTYLHWYLQKPGQSPQLLIYKVSNRFSGVPDRFSGSGSGTDFTLKISRVEAEDVGVYYCSQNTHVPPTFGQGTKVEIERTVAAPSVFIFPPSDEQLKSGTASVVCLLNNFYPREAKVQWKVDNALQSGNSQESVTEQDSKDSTYSLSSTLTLSKADYEKHKVYACEVTHQGLSSPVTKSFNRGEC",96.4 % of control,109 % of control,89.6 % of control,107 % of control,82.9 % of control
"GpH7-A5/GpH7-B3 variant L234_07I/GpL16-k0 (antibody, human IgG1, kappa) heavy 1: not shown heavy 2: not shown light: DIVMTQSPLSLPVTPGEPASISCQASESLVHSNRNTYLHWYLQKPGQSPQLLIYKVSNRFSGVPDRFSGSGSGTDFTLKISRVEAEDVGVYYCSQNTHVPPTFGQGTKVEIERTVAAPSVFIFPPSDEQLKSGTASVVCLLNNFYPREAKVQWKVDNALQSGNSQESVTEQDSKDSTYSLSSTLTLSKADYEKHKVYACEVTHQGLSSPVTKSFNRGEC",101 % of control,110 % of control,92.3 % of control,106 % of control,99.5 % of control

# The next lines start with the values.
He/Con 2aH [1],He/Con 2aR [2],He/Con 2b [3],He/Con 1a [4],He/Con 3a [5],Binder
88.1 % of control,87.2 % of control,68.9 % of control,98.8 % of control,77.1 % of control,"GpH7-A5/GpH7-B3 variant L234_19Q/GpL16-k0 (antibody, human IgG1, kappa) heavy 1: not shown heavy 2: not shown light: DIVMTQSPLSLPVTPGEPASISCQASESLVHSNRNTYLHWYLQKPGQSPQLLIYKVSNRFSGVPDRFSGSGSGTDFTLKISRVEAEDVGVYYCSQNTHVPPTFGQGTKVEIERTVAAPSVFIFPPSDEQLKSGTASVVCLLNNFYPREAKVQWKVDNALQSGNSQESVTEQDSKDSTYSLSSTLTLSKADYEKHKVYACEVTHQGLSSPVTKSFNRGEC"
97.1 % of control,83.5 % of control,67.8 % of control,97 % of control,76.8 % of control,"GpH7-A5/GpH7-B3 variant L234_16H/GpL16-k0 (antibody, human IgG1, kappa) heavy 1: not shown heavy 2: not shown light: DIVMTQSPLSLPVTPGEPASISCQASESLVHSNRNTYLHWYLQKPGQSPQLLIYKVSNRFSGVPDRFSGSGSGTDFTLKISRVEAEDVGVYYCSQNTHVPPTFGQGTKVEIERTVAAPSVFIFPPSDEQLKSGTASVVCLLNNFYPREAKVQWKVDNALQSGNSQESVTEQDSKDSTYSLSSTLTLSKADYEKHKVYACEVTHQGLSSPVTKSFNRGEC"
98.2 % of control,130 % of control,134 % of control,104 % of control,111 % of control,"GpH7-A5/GpH7-B3 variant L234_10E/GpL16-k0 (antibody, human IgG1, kappa) heavy 1: not shown heavy 2: not shown light: DIVMTQSPLSLPVTPGEPASISCQASESLVHSNRNTYLHWYLQKPGQSPQLLIYKVSNRFSGVPDRFSGSGSGTDFTLKISRVEAEDVGVYYCSQNTHVPPTFGQGTKVEIERTVAAPSVFIFPPSDEQLKSGTASVVCLLNNFYPREAKVQWKVDNALQSGNSQESVTEQDSKDSTYSLSSTLTLSKADYEKHKVYACEVTHQGLSSPVTKSFNRGEC"
86.8 % of control,90 % of control,71.4 % of control,102 % of control,69.8 % of control,"GpH7-A5/GpH7-B3 variant L234_14T/GpL16-k0 (antibody, human IgG1, kappa) heavy 1: not shown heavy 2: not shown light: DIVMTQSPLSLPVTPGEPASISCQASESLVHSNRNTYLHWYLQKPGQSPQLLIYKVSNRFSGVPDRFSGSGSGTDFTLKISRVEAEDVGVYYCSQNTHVPPTFGQGTKVEIERTVAAPSVFIFPPSDEQLKSGTASVVCLLNNFYPREAKVQWKVDNALQSGNSQESVTEQDSKDSTYSLSSTLTLSKADYEKHKVYACEVTHQGLSSPVTKSFNRGEC"
89.4 % of control,82.6 % of control,67.7 % of control,100 % of control,68.1 % of control,"GpH7-A5/GpH7-B3 variant L234_13S/GpL16-k0 (antibody, human IgG1, kappa) heavy 1: not shown heavy 2: not shown light: DIVMTQSPLSLPVTPGEPASISCQASESLVHSNRNTYLHWYLQKPGQSPQLLIYKVSNRFSGVPDRFSGSGSGTDFTLKISRVEAEDVGVYYCSQNTHVPPTFGQGTKVEIERTVAAPSVFIFPPSDEQLKSGTASVVCLLNNFYPREAKVQWKVDNALQSGNSQESVTEQDSKDSTYSLSSTLTLSKADYEKHKVYACEVTHQGLSSPVTKSFNRGEC"
100 % of control,98 % of control,92 % of control,97.3 % of control,88.2 % of control,"GpH7-A5/GpH7-B3 variant L234_18N/GpL16-k0 (antibody, human IgG1, kappa) heavy 1: not shown heavy 2: not shown light: DIVMTQSPLSLPVTPGEPASISCQASESLVHSNRNTYLHWYLQKPGQSPQLLIYKVSNRFSGVPDRFSGSGSGTDFTLKISRVEAEDVGVYYCSQNTHVPPTFGQGTKVEIERTVAAPSVFIFPPSDEQLKSGTASVVCLLNNFYPREAKVQWKVDNALQSGNSQESVTEQDSKDSTYSLSSTLTLSKADYEKHKVYACEVTHQGLSSPVTKSFNRGEC"
134 % of control,113 % of control,110 % of control,103 % of control,126 % of control,"GpH7-A5/GpH7-B3 variant L234_15Y/GpL16-k0 (antibody, human IgG1, kappa) heavy 1: not shown heavy 2: not shown light: DIVMTQSPLSLPVTPGEPASISCQASESLVHSNRNTYLHWYLQKPGQSPQLLIYKVSNRFSGVPDRFSGSGSGTDFTLKISRVEAEDVGVYYCSQNTHVPPTFGQGTKVEIERTVAAPSVFIFPPSDEQLKSGTASVVCLLNNFYPREAKVQWKVDNALQSGNSQESVTEQDSKDSTYSLSSTLTLSKADYEKHKVYACEVTHQGLSSPVTKSFNRGEC"

# — patent US20260167699A1 (Chugai, published 2026)
